Assay results as given in patent US6800467B1, “Polypeptides having aminopeptidase activity and nucleic acids encoding same” (Novozymes Biotech, Inc., priority 1997, dated 2004).

Experiments:
Assay type in all cases: biochemical
[1] = pH optimum using Ala-pNA as substrate in universal buffer
Procedure: The purified aninopeptidase II described in Example 15 was used in the following characterizations.
The Ala-pNA substrate was prepared by dissolving 100 mg of Ala-pNA in 1 ml of DMSO and adding 20 μl of the Ala-pNA/DMSO solution to 980 μl of the universal buffer at the various pH values. The assay was initiated by adding a 15 μl aliquot of the aminopeptidase II in 50 mM sodium phosphate pH 7.5 buffer to 200 μl of 2 mg/ml Ala-pNA at the various pH values at ambient temperature. The change in absorbance at 405 nm was monitored for 5 minutes. Autohydrolysis of the substrate as a control was determined by adding 15 μl of 50 mM sodium phosphate pH 7.5 buffer to 200 μl of 2 mg/ml Ala-pNA at the various pH values.

soy bean meal tablets = experiment: Degree of hydrolysis (DH) assay, soy; conditions: vs 3 LAPUs FLAVOURZYME alone, 50° C., 18 hours
Procedure: The purified aminopeptidase II described in Example 11 was tested in degree of hydrolysis assays using soy, wheat gluten, and casein as substrates according to the following procedure.
The degree of hydrolysis (DH) assays were performed at 50° C. for 18 hours as a mini-hydrolysis on a 10 ml scale using soy bean meal tablets, wheat gluten meal tablets, and sodium-caseinate at a 2% concentration adjusted to pH 7, if necessary, with no pH adjustment during hydrolysis. The hydrolysates were inactivated at 85° C. for 3 minutes in a waterbath. The enzymes used were FLAVOURZYME™ and aminopeptidase II. The enzymes were dosed as follows. […] Upon hydrolysis, p-nitroanilide is liberated turning the solution yellow which is monitored 405 nm.
The degree of hydrolysis (DH), as defined as described by Adler-Nissen (1986, Enzymic Hydrolysis of Food Proteins, Elsevier Applied Science Publishers), was determined by reaction of the supernatant with OPA (ortho-phtaldialdehyde, Sigma Chemical Co., St. Louis, Mo.) according to the following procedure The hydrolysate was diluted 100-fold into distilled water. […] The solution was then shaken well and after 2 minutes exactly, the absorbance at 340 nm was measured and compared to the absorbance of a 0.95 mM L-serine (distilled water) solution after subtraction of the blank value (water reacted with OPA reagent). […]

[2] = Temperature stability of the aminopeptidase II, residual activity on Leu-pNA
Procedure: The temperature stability of the aminopeptidase II was determined using the following protocol: 480 μl of 50 mM sodium phosphate buffer pH 7.5 was preincubated at 37°, 45°, 55°, 60°, 65°, 70°, and 75° C. for 30 minutes in a 1.7 ml Eppendorf tube. Then 20 μl of purified aminopeptidase II was added and the sample was then incubated for an additional 20 minutes. The samples were then placed on ice. Once the incubations were completed for all the temperatures, the samples were then assayed for activity using Leu-pNA as substrate.
The assay was performed by mixing 100 μl of the incubation mixtures for the various temperatures with 100 μl of 2 mg/ml Leu-pNA in 50 mM sodium phosphate pH 7.5 buffer at ambient temperature. The absorbance at 405 nm was monitored for 5 minutes.

B1: aminopeptidase II: Recombinant Aspergillus oryzae 1568 (ATCC 20386) aminopeptidase II, 496 amino acids (SEQ ID NO:2), produced in Aspergillus oryzae or Fusarium (protein)
chain: MRSLLWASLLSGVLAGRALVSPDEFPEDIQLEDLLEGSQQLEDFAYAYPERNRVFGGKAHDDTVNYLYEELKKTGYYDVYKQPQVHLWSNADQTLKVGDEEIEAKTMTYSPSVEVTADVAVVKNLGCSEADYPSDVEGKVALIKRGECPFGDKSVLAAKAKAAASIVYNNVAGSMAGTLGAAQSDKGPYSAIVGISLEDGQKLIKLAEAGSVSVDLWVDSKQENRTTYNVVAQTKGGDPNNVVALGGHTDSVEAGPGINDDGSGIISNLVIAKALTQYSVKNAVRFLFWTAEEFGLLGSNYYVSHLNATELNKIRLYLNFDMIASPNYALMIYDGDGSAFNQSGPAGSAQIEKLFEDYYDSIDLPHIPTQFDGRSDYEAFILNGIPSGGLFTGAEGIMSEENASRWGGQAGVAYDANYHAAGDNMTNLNHEAFLINSKATAFAVATYANDLSSIPKRNTTSSLHRRARTMRPFGKRAPKTHAHVSGSGCWHSQVEA
- pH of optimal activity ([1]; Ala-pNA as substrate, ambient temperature, enzyme of Example 15 (produced by Fusarium)): 9.5-10
- Avg. Activity ([1]; pH 4.42, Ala-pNA, ambient temperature): 0 mOD/min
- Relative Activity ([1]; pH 4.42, Ala-pNA, relative to pH 9.68): 0
- Avg. Activity ([1]; pH 4.91, Ala-pNA, ambient temperature): 2 mOD/min
- Relative Activity ([1]; pH 4.91, Ala-pNA, relative to pH 9.68): 0.006
- Avg. Activity ([1]; pH 5.41, Ala-pNA, ambient temperature): 7.8 mOD/min
- Relative Activity ([1]; pH 5.41, Ala-pNA, relative to pH 9.68): 0.024
- Avg. Activity ([1]; pH 5.89, Ala-pNA, ambient temperature): 13.9 mOD/min
- Relative Activity ([1]; pH 5.89, Ala-pNA, relative to pH 9.68): 0.043
- Avg. Activity ([1]; pH 6.40, Ala-pNA, ambient temperature): 16.37 mOD/min
- Relative Activity ([1]; pH 6.40, Ala-pNA, relative to pH 9.68): 0.051
- Avg. Activity ([1]; pH 6.90, Ala-pNA, ambient temperature): 23.48 mOD/min
- Relative Activity ([1]; pH 6.90, Ala-pNA, relative to pH 9.68): 0.0727
- Avg. Activity ([1]; pH 7.27, Ala-pNA, ambient temperature): 41.24 mOD/min
- Relative Activity ([1]; pH 7.27, Ala-pNA, relative to pH 9.68): 0.128
- Avg. Activity ([1]; pH 7.59, Ala-pNA, ambient temperature): 69.15 mOD/min
- Relative Activity ([1]; pH 7.59, Ala-pNA, relative to pH 9.68): 0.214
- Avg. Activity ([1]; pH 8.03, Ala-pNA, ambient temperature): 145.6 mOD/min
- Relative Activity ([1]; pH 8.03, Ala-pNA, relative to pH 9.68): 0.45
- Avg. Activity ([1]; pH 8.62, Ala-pNA, ambient temperature): 245.99 mOD/min
- Relative Activity ([1]; pH 8.62, Ala-pNA, relative to pH 9.68): 0.761
- Avg. Activity ([1]; pH 9.25, Ala-pNA, ambient temperature): 306.97 mOD/min
- Relative Activity ([1]; pH 9.25, Ala-pNA, relative to pH 9.68): 0.95
- Relative Activity ([1]; pH 9.68, Ala-pNA (reference)): 1.0
- Avg. Activity ([1]; pH 9.68, Ala-pNA, ambient temperature): 323.15 mOD/min
- Avg. Activity ([1]; pH 10.51, Ala-pNA, ambient temperature): 270.8 mOD/min
- Relative Activity ([1]; pH 10.51, Ala-pNA, relative to pH 9.68): 0.838
- Avg. Activity ([1]; pH 10.95, Ala-pNA, ambient temperature): 197.86 mOD/min
- Relative Activity ([1]; pH 10.95, Ala-pNA, relative to pH 9.68): 0.612
- increase of absolute DH (soy bean meal tablets; 2 LAPUs aminopeptidase II added to 3 LAPUs FLAVOURZYME): at least 8%
- increase of absolute DH (soy bean meal tablets; 5 LAPUs aminopeptidase II added to 3 LAPUs FLAVOURZYME): ≥ 10%
- Percent activity relative to 37° C. ([2]; 20 minutes at 37° C., pH 7.5, no substrate (reference)): 100
- Percent activity relative to 37° C. ([2]; 20 minutes at 45° C., pH 7.5, no substrate): 101
- Percent activity relative to 37° C. ([2]; 20 minutes at 55° C., pH 7.5, no substrate): 99
- Percent activity relative to 37° C. ([2]; 20 minutes at 60° C., pH 7.5, no substrate): 90
- Percent activity relative to 37° C. ([2]; 20 minutes at 65° C., pH 7.5, no substrate): 73.7
- Percent activity relative to 37° C. ([2]; 20 minutes at 70° C., pH 7.5, no substrate): 64.6
- Percent activity relative to 37° C. ([2]; 20 minutes at 75° C., pH 7.5, no substrate): 46
